Measured values: article PMC8602850

Legend:
[1] = molecular target: gC1qR, wild type, mature recombinant (receptor for the globular heads of C1q) (UniProt Q07021); assay: SPR; gC1qR-WT or gC1qR-ΔΔ immobilised; two-fold dilution series of analyte injected; reference-corrected sensorgrams fit to kinetic models; apparent KD
[2] = molecular target: gC1qR-ΔΔ, gC1qR deletion mutant that removed the flexible, negatively charged loops (UniProt Q07021); assay: not stated; not published; oligomeric state of gC1qR-ΔΔ in solution and in the crystal

Sequence of gC1qR, wild type, mature recombinant (receptor for the globular heads of C1q) (Q07021 74-282): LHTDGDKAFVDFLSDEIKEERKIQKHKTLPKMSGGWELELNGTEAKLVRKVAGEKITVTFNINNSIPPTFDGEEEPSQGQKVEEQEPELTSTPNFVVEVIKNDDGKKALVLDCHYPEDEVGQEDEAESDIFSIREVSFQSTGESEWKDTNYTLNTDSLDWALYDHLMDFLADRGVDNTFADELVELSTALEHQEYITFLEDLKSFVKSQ
Sequence of gC1qR-ΔΔ, gC1qR deletion mutant that removed the flexible, negatively charged loops (from UniProt Q07021 74-282) (receptor) (Q07021 74-282, stated change not applied): as the sequence (Q07021 74-282) above

Row | Substance | Kd [1] | stoichiometry N [2]
1 | SARS-CoV-2 Membrane-Envelope fusion protein, recombinant | 410 nM | 
2 | gC1qR-ΔΔ, gC1qR deletion mutant that removed the flexible, negatively charged loops (from UniProt Q07021 74-282) (receptor) |  | 3
